Laboratory results taken from paper PMC7608663, “Pharmacokinetic–pharmacodynamic modelling of the hypoglycaemic effect of pulsatile administration of human insulin in rats” (Scientific Reports, 2020).
pKd: −log10 of the molar value.

What was measured:
[1] = rat, in vivo, iv; SD
Description: Animal experiments were performed following the procedures as described earlier[26], with slight adaptations. In short, male Wistar rats (Japan SLC, Shizuoka, Japan) weighing 270–320 g were used in this study. Rats were housed in controlled environmental facilities (temperature: 24 ± 1 °C, humidity: 55% ± 10%) under a 12:12-h light–dark cycle (06:00 h/18:00 h) for more than 1 week and allowed free access to a standard diet and tap water. One day before the experiment, rats were anaesthetized with ethyl ether and implanted surgically with a phycon tube connected to a PE50 catheter in the jugular vein for drug administration and another phycon-PE50 catheter in the femoral vein for blood sampling. Both catheters were externalized through the back in the neck region and secured. Unless otherwise specified, all animal experiments were conducted without restraint or anaesthesia and in a fasted state. On the day of the experiment, each rat was housed in an individual cage and left alone for at least 1 h. INS was dissolved in a 0.1% bovine serum albumin solution. Pulsatile administration of INS was performed by repeated intravenous bolus injections at constant intervals of 6–60 min within 2 h (total dose: 0.5 IU/kg). As controls, a single bolus injection or 2-h infusion were also conducted at doses of 0.5 IU/kg and 0.25 IU/kg/h, respectively. INS (0.025–0.5 IU/kg) was intravenously injected to estimate PK and PD parameters. Blood samples (≤ 0.1 mL) were withdrawn from the femoral vein before and at designated times after dosing. The blood samples were transferred to heparinized tubes, then centrifuged (12,000 × g, 5 min). The isolated plasma was stored frozen at − 20 °C until analysis. Immunoreactive INS concentrations in plasma were determined using an enzyme-linked immunosorbent assay (ELISA) kit (Shibayagi, Gunma, Japan). The mutarotase glucose oxidase method kit (Wako Pure Chemical Industries, Osaka, Japan) was used to measure plasma glucose concentrations. […]
The concentration–time data were analysed by the nonlinear regression program FKDM[27]. […]

[2] = tested on: plasma glucose concentration; assay: Hypoglycaemic effect (plasma glucose) after intravenous INS, PK-PD indirect response modelling; format: in vivo, rat
Source text: An indirect response model was used to analyse the PK–PD relationship. The differential equation for the INS stimulus of the model is as follows:5 dGlc/dt=KGin-1+Smax∙SIG^γ/SC50^γ+SIG^γkGout∙Glc, where Glc is the plasma glucose concentration (mg/dL), SIG is the theoretical signal strength concerned with the hypoglycaemic effect of INS, Smax is the maximum effect, SC50 is the SIG producing 50% of Smax, r is Hill’s constant, KGin is the zero-order rate constant concerned with endogenous glucose production, and kGout is the first-order rate constant (min^−1) concerned with glucose elimination. Before INS is administered, the observed baseline level of Glc is maintained as G00 (105.12 mg/dL), which is determined by KGin = kGout.G00. Equation (5) can comprehensively express the mechanism of action of INS that is not assumed in the following model.
To assess the contribution of the receptor-binding process of INS to the hypoglycaemic effect, the INS receptor-based PK–PD model (IR model) was designed as follows:6 ϕ=CIns∙100/Kd+CIns-ϕ00.
We assumed that SIG is equal to the value of Φ in this model. To evaluate the contribution of the translocation process to the hypoglycaemic effect, the GLUT4 translocation-based PK–PD model (GT model) was designed as follows:7 dG4A/dt=α∙CIns-C00-G4A/TAB, 8 dG4B/dt=G4A/TAB-G4B/TBA. […]

[3] = tested on: INS receptors, rat soleus muscle cells; details: fixed value in the IR model, read-out: dissociation constant (Kd); cited from earlier work
Source text: In the post-prandial state, the uptake of glucose from the blood in vivo mainly occurs in skeletal muscle, which expresses INS receptors. […] Although there are various kinds of skeletal muscle in the body, it would not be useful to individually model each receptor in all skeletal muscles, because this complicates the model. […] We assumed that SIG is equal to the value of Φ in this model. To evaluate the contribution of the translocation process to the hypoglycaemic effect, the GLUT4 translocation-based PK–PD model (GT model) was designed as follows:7 dG4A/dt=α∙CIns-C00-G4A/TAB, 8 dG4B/dt=G4A/TAB-G4B/TBA. || page 3: Parameters Estimated values Pharmacokinetic parameters k12 (min-1) 0.843 ± 0.25 k (min-1) 0.419 ± 0.073 21 k10 (min-1) 0.000314 ± 0.0079 Km (ng/kg) 1538 ± 624 Vmax (ng/kg/min) 3243 ± 649 Vc (mL/kg) 29.3 ± 6.6 Pharmacodynamic parameters of the IR model Kd (nmol/L) 2.062 FIX SC50IR (%) 7.60 ± 1.8 SmaxIR 3.01 ± 0.31 γ 2.25 ± 1.8 IR kGoutIR (min-1) 0.0208 ± 0.0018 Pharmacodynamic parameters of the GT model α 0.153 ± 0.56 T (min) 3 FIX AB TBA (min) 20 FIX SC50GT 100.22 ± 354 SmaxGT 2.58 ± 1.3 γGT 0.736 ± 0.11 kGoutGT (min-1) 0.141 ± 0.021 Supplementary Table S1. Pharmacokinetic and pharmaco ...

For Human recombinant INS (Humulin R), the “Km, Michaelis-Menten kinetic constant of elimination” value [1] was 1538 ± 624 ng/kg, the “Vc, volume of distribution for the central (plasma) INS compartment” value [1] was 0.0293 ± 0.0066 L/kg and the “Vmax, Michaelis-Menten kinetic constant of elimination” value [1] was 3243 ± 649 ng/kg/min. The “time required for the maximal hypoglycaemic effect” value ([2]; after single i.v. bolus administration, rats (Fig. 3)) was “about 20 min”, the “area between the effect-time curve and the basal concentration (AUE), pulsatile administration compared with single bolus” value ([2]; total 0.5 IU/kg i.v. within 2 h, 2-20 pulses vs bolus 0.5 IU/kg, rats, depends on pulse rate, saturated above four injections, Dunnett's test, n = 3-4) was “significantly higher” and the pKd [3] was 8.69.
